Assay [1] concerns the target MARV Angola GPe[change] (Marburg virus, Angola strain, UniProt Q1PD50 19-636). The assay is described as follows: cross reactivity with GPeΔmuc, summary table.
The target in assay [2] is MARV Musoke GPe[change] (Marburg virus, Musoke strain, UniProt P35253 19-636). The assay can be described thus: cross reactivity with GPeΔmuc, summary table.

B1: CAN30G1 (antibody, V domains shown)
VH: QIQLVQSGPELKKPGETVKISCKASGYTFTNYGMNWVKQAPGKGLKWMGWINTYTGKPTYVDDFKGRFAFSLETSANTAYLQINNLKNEDTATYFCESGGYDEDYWGQGTTLTVSS
VL: ENVLTQSPAIMSASPGEKVTMTCSASSSVTYMHWYQQKSSTSPKLWIYDTSKLASGVPGRFSGSGSGNSYSLTISSMEAEDVATYYCFQGSGYPYTFGGGTKLEIK
Turning to B1, the binding result in assay [1] and in assay [2] was “binds” throughout.

B2: CAN54G2 (antibody, V domains shown)
VH: QVQLQQSGTELVRPGTSVKISCKASGYDFTNFWLGWIKQRPGHGLEWIGDIYPGGDNTYYNEKFKGKVTLTADKSSNTAYMQFSSLTSEDSAVYFCFMILYTLDYWGQGTSVTVSS
VL: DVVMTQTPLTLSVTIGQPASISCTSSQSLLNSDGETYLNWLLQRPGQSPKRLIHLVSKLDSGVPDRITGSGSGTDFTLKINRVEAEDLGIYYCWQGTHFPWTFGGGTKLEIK
Regarding B2, the binding result in assay [1] and in assay [2] was “binds” throughout.

B3: CAN30G5 (antibody, V domains shown)
VH: EVQLVESGGGLVQPKGSLKLSCAASGFAFNSYAMHWVCQAPGKGLEWVARIRIKSGNYATSYAGSVTDRFTVSRDDSQNLFYLQMNNLKTEDTAMYYCVREWEGAMDYWGQGTSVTVSS
VL: DIVLTQSPLSLPVSLGDQASISCRSSQSLVHSNGNTYLHWYLQKPGQSPNLLIYKVSNRFSGVPDRFSGSGSGTDFTLKISRVEAEDLGVYFCSQSTHVPWTFGGGTKLEIK
As for B3, the binding result in assay [1] and in assay [2] was “binds” throughout.

B4: CAN30G3 (antibody, V domains shown)
VH: QVQLKESGPGLVAPSQSLSITCTVSGFSLTDYGITWIRQPPGKGLEWLGVIWGGGSAYYNLVLKSRLSISKDNSKSQVFLKMNSLQTDDTAMYYCAKHRTLITTAMDYWGQGISVTVSS
VL: DVLMTQTPLSLPVSLGDQASISCRSSQNIVHSNGNTYLEWYLQKSGQSPKLLIYKVSNRFSGVPDRFSGSGSGTDFTLKISRVEAEDLGVYYCFQGSHFPWTFGGGTKLEIK
B4: the binding result in assay [1] and in assay [2] was “binds” each time.

B5: CAN30G4 (antibody, V domains shown)
VH: EVKLVESGGGLVKSGGSLKLSCAVSGFTFSTYAMSWVRQIPEKRLEWVATISNGGSYIYYSDSVKGRFTISRDNAKNTLYLQMSSLRSEDTAMYYCARHRESYRYDWFAYWGQGTLVTVSA
VL: DVLMTQTPLSLPVSLGDQASISCRSSQNIVHSDGNTYLEWYLQKPGQSPKLLIYKFSNRFSGVPDRFSGSGSGTDFTLKISRVEAEDLGVYYCFQGSHVPPTFGAGTKLELK
Regarding B5, the binding result in assay [1] and in assay [2] was “binds” throughout.

B6: CAN40G1 (antibody, V domains shown)
VH: EVQLQQSGPELVKPGASVKISCRTSGYTFTEYTIHWVKQSRGKSLEWIGGINPNHGGTLYNQKFKVKATLTVDKSSSTAYMELRSLTSEDSAVYYCARFTYDYWGQGTTLTVSS
VL: DIVLTQSPASLAVSLGQRASISCKASQSVDHDGDSYMNWYQQKPGQPPKLLIYATSNLESGIPARFSGSGSGTDFTLNIHPVEEEDAATYYCQQSYEVPLTFGAGTKLELK
Regarding B6, the binding result in assay [1] and in assay [2] was “binds” in each case.

The record behind these values is patent US20170065702A1 (CANGENE, published 2017).
